According to patent US20180185504A1 (Regeneron, published 2018):
Numbering of substitutions follows the chain as printed. Names may count otherwise. Like-named read-outs stand apart in the source and are kept apart here.

Columns and labels:
[1] = target: T1, mouse PRLR with an HA tag on HEK293 cells (mouse, UniProt Q08501 20-608); assay: FACS on HEK293/mPRLR cells
T1 construct: whole, on cells; also called HEK293/mPRLR; rodent PRLR; not shown: HA tag
T1 sequence (looked up): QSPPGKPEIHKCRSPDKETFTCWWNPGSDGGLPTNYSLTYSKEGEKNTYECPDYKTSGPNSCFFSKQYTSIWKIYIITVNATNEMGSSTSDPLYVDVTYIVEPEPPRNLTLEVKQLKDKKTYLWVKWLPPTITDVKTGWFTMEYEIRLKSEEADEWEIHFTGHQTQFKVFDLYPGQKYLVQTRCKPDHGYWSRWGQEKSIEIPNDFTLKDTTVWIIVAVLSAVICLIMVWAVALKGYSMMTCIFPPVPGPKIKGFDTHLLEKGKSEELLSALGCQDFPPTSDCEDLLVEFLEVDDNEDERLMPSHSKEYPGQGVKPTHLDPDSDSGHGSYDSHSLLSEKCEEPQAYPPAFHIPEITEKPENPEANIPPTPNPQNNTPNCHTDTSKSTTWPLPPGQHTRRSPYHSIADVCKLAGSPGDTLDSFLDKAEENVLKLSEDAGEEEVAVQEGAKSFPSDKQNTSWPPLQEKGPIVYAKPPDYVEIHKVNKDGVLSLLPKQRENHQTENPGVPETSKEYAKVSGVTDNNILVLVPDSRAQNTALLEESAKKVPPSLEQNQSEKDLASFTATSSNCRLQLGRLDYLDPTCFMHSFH

[2] = target: T2, human prolactin receptor (PRLR) (human, UniProt P16471 25-622); assay: cell-based or functional assay
T2 sequence: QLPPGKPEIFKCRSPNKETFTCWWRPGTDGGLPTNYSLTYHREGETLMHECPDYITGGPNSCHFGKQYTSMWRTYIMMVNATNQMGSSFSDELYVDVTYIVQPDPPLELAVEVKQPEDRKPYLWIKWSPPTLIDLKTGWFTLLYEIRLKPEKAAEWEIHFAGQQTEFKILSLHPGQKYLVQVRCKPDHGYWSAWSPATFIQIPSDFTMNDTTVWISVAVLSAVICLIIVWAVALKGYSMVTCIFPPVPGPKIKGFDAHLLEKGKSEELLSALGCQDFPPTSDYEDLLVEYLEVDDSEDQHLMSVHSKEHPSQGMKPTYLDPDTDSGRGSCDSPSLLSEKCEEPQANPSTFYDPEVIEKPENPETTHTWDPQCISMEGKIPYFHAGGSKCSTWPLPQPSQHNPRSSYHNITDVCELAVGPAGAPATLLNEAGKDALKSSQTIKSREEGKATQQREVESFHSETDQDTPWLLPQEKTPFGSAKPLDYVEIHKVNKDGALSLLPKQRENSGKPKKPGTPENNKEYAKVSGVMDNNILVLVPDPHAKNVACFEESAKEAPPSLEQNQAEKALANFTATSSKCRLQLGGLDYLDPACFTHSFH

[3] = target: T2, human prolactin receptor (PRLR); assay: cell-based or functional assay; remark: listed apart in the source
[4] = target: T2, human prolactin receptor (PRLR); assay: cell-based or functional assay; remark: listed apart in the source
[5] = target: T2, human prolactin receptor (PRLR); assay: cell-based or functional assay; remark: listed apart in the source
[6] = target: T2, human prolactin receptor (PRLR); assay: cell-based or functional assay; remark: listed apart in the source

B1: H1H6790P (antibody, human IgG1, V domains shown)
VH: EVQLVESGGGLVQPGGSLRLSCAASGFTFSSYAMTWVRQAPGKGLEWVSAITGSVGNTYYADSVKGRFTISRDNSKNTLYLQMNSLGAEDTAEYYCAKGAGMTTNWYLDLWGRGTLVTVSS
VL: DIVMTQSPDSLAVSLGARATINCKSSQSVLYSSNNQNYLTWYQQKPGQPPKLLIKWASTRESGVPDRFSGSGSGTDFTLTISSLQAEDVAVYYCQQYASSPYTFGQGTKLEIK
- binding result [1]: no binding

B2: H1H6975N (antibody, human IgG1, V domains shown)
VH: EVHLVESGGGLVQPGGSLRLSCAASGFTFSSYEMNWVRQTPGKGLEWISHISSRSVIIYYADSVKGRFTISRDNAKNSLFLQMNSLRAEDTAVYFCAGITIFGIPEYWGQGTLVTVSS
VL: EIVLTQSPATLSLSPGERATLSCRASQSVSSYFAWYQQKPGQAPRLLIYDASSRATGIPTRFSGSGSGTDFTLTISSLEPEDFAVYYCQQRSSWPITFGQGTRLEIK
notes: Tested with human IgG1 Fc (H1H); also called H1H6975P
- binding result [1]: no binding

B3: H1H6959N2 (antibody, human IgG1, V domains shown)
VH: EVQLVESGGGLVQPGRSLRLSCAASGFTFDDYAMHWVRQAPGKGLEWVSGISWHSGIIGYADSVKGRFTISRDNAKNSLYLQMNSLRTEDAALYYCAKIGSYFYFDSWGQGTLVTVSS
VL: EIVLTQSPGTLSLSPGERATLSCRASQSVSSNYLAWYQQKPGQAPRLLIYGASSRATGIPDRFSGSGSGTDFTLTISRLEPEDFAVYYCQQFGSSGYTFGQGTNLEIK
notes: Tested with human IgG1 Fc (H1H)
- binding result [1]: no binding

B4: H1H6953N (antibody, human IgG1, V domains shown)
VH: EVQLLESGGGLVQPGGTLRLSCAASGFTFSAYAMSWVRQAPGKGLEWVSSINVRAGDTYYADSVKGRFTISRDNSKNTLFLLMNSLRAEDTAAYYCAKARYSSNWGFDFWGQGTLVTVSS
VL: DIVMTQSPDSLTVSLGARTTINCQSSQTILHSSNNHNYLAWYQQKPGLPPKLLIYWSSTRESGVPDRFSGSGSGTDFTLTISSLQAEDVAIYYCQQYSNTPYTFGQGTKLEIN
notes: as for B3
- binding result [1]: no binding

B5: H1H6966N (antibody, human IgG1, V domains shown)
VH: QVQLVQSGAEVQKPGASVKVSCKVSGYTLTALSIHWVRQAPGKGLEWMGNFDPGDGETIHAQKFQGRVTMTGDTSTDTAYMELSSLRSEDTAVYYCVGVTFDYWGQGTLVTVSS
VL: EIVMTQSPATLSVSPGERATLSCRASQSVASNLAWYQQKPGQAPRLLLYGASTRATGIPARFSGSGSGTEFTLTISSLQSEDFALYYCQHYNNWPLTFGGGTKVEIK
notes: as for B3
- binding result [1]: no binding

B6: H1H6967N (antibody, human IgG1, V domains shown)
VH: EVQLVESGGDLVHPGRSLRLSCAASGFPFDEYAMHWVRQVPGKGLEWVSGISWSNNNIGYADSVKGRFTISRDNAKNSLYLQMNSLRPEDTAFYYCAKSGIFDSWGQGTLVTVSS
VL: B5 VL with A30S, S31R, N32D, L48I, Y49H, T69A, T74I, L85V, H90Q
notes: as for B3
- binding result [1]: no binding

B7: H1H6976N (antibody, human IgG1, V domains shown)
VH: EVQLLESGGGFVQPGGSLRLSCAASGFTFSSYAMSWVRQAPGKGLEWVSIISSNGRYTYYADSVKGRFTISRDNSKNTLYLQMNSLRAEDTAVYYCATVTGDWFDPWGQGTLVTVSS
VL: DIQLTQSPSFLSASVGDRVTITCWASQDIDISLAWYQQKPGKAPKLLIYAASTLQSGVPSKFSGSGSGTDFTLTISSLQPEDFSTYYCQQLNSYPITFGQGTRLDIK
notes: as for B3
- binding result [1]: no binding

B8: H1H6960N (antibody, human IgG1, V domains shown)
VH: EVQLVESGGGLVKPGGSLRLSCAASGITFSSYSMNWVRQAPGKGLEWVSSISTRSSLIHYADSVKGRFTISRDNAKNSLYLQMNSLRDEDTAVYYCARWDAAAAFDYWGQGTLVIVSS
VL: DIQLTQSPSFLSASVGDRVTITCWASQGISSYLAWYQQKPGKAPKLLIYVASTLQSGVPSRFSGSGSGTEFTLTISSLQPEDFATYFCQQLNSYPLTFGGGTKVEIK
notes: as for B3
- binding result [1]: no binding

B9: H1H6781P (antibody, human IgG1, V domains shown)
VH: EVQLVESGGDLVQPGESLRLSCTASGFTFNSYEMNWVRQAPGKGLEWVSYISSSGGTKYYVDSVKGRFTISRDNAKKSLYLQMNSLRADDTALYYCARLNGVDVFDIWGQGTMVTVSS
VL: DIQMTQSPSSLSASVGDRVTITCRASQDIFNYLAWFQQKPGKVPELLISAASTLQSGVPSRFSGSGSGTYFTLTISSLQPEDIATYYCQRYNSAPLTFGGGTKVEIK
- binding result [1]: no binding

B10: H1H6785P (antibody, human IgG1, V domains shown)
VH: EVQLVESGGGLVQPGGSLRLSCAASGFTFSSYEMNWVRQAPGKGLEWISYISSRGGTIYYADSIKGRFTIYRDNARNSLYLQMNSLRAEDTAIYYCARLSGVDIFDIWGQGTMVTVSS
VL: B9 VL with D28G, F30S, F36Y, E45K, S49Y, A50F, S65G, Y70D, I83V
- binding result [1]: no binding

B11: H1H6774P (antibody, human IgG1, V domains shown)
VH: EVQLVESGGGLAQPGGSLRLSCVASGFTFSTYWMSWVRQAPGKGLDWVGNIKQDGSEQNYVDSVRGRFTISRDNAKNSLFLQMNSLRAEDTGVYYCATLLTKGDYWGQGTLVTVSS
VL: DIQMTQSPSSLSASVGDSVTITCRASQDISNYLDWFQQKPGKAPKSLIYAASILQGGVPSRFSGSGYGTDFTLTISSLQPEDFATYYCRQYKTYPFTFGPGTKVDIK
- binding result [1]: no binding

B12: H1H6782P-DM1 (antibody, human IgG1, V domains shown)
VH: EVQLVESGGGLVQPGRSLRLSCAASGFTFDDYAMHWVRQAPGKGLEWVSGIIWNSGHIGYGDSVKGRFTISRDNAKKSLYLQMNSLRAEDTALYYCARDSGRYQSYFDYWGQGTLVTVSS
VL: DIQMTQSPSTLSASVGDRVTITCRASHIISSWLAWYQQKPGKAPKVLIFKASSLESGVPSRFSGSGSGTEFTLTISSLQPDDFATYYCQQYNTYSRTFGQGTKVEIK
modifications: DM1 conjugated through SMCC linker; attachment residues not stated
- % Kill, T47D cells [2]: 100%
- IC50, cell viability, T47D cells [2]: 3 nM
- % Kill, MCF7/ATCC cells [3]: 70%
- % Kill, MCF7/PRLR cells [3]: 80%
- IC50, cell viability, MCF7/ATCC cells [3]: 250 nM
- IC50, cell viability, MCF7/PRLR cells [3]: 0.3 nM
- % Kill, PC3/PRLR cells [4]: 64%
- IC50, cell viability, PC3/PRLR cells [4]: 0.92 nM
- % Kill, MCF7/PRLR cells [5]: 85%
- % Kill, MCF7 cells [5]: 57%
- % Kill, T47D cells [5]: 74%
- IC50, cell viability, MCF7/PRLR cells [5]: 0.65 nM
- IC50, cell viability, MCF7 cells [5]: 120 nM
- IC50, cell viability, T47D cells [5]: 4.19 nM
- IC50, cell viability, T47D cells, + 15 nM PRL [6]: 2 nM
- IC50, cell viability, T47D cells, without PRL [6]: 1 nM

B13: H1H6782P (antibody, human IgG1, V domains shown)
VH: B12 VH
VL: B12 VL
- binding result [1]: no binding

B14: H1H6765P (antibody, human IgG1, V domains shown)
VH: EVQLVESGGGVVRPGGSLRLSCVGSGFSFDDHGMNWVRQGPGKGLEWVSGFNWNGGSTNYAESVKGRFTISRDNARNSLFLQMNSLRAEDTALYYCVRGRSGWFNDAFDVWGPGTMVTVSS
VL: EIVLTQSPGTLSLSPGERATLSCRASQTINSNYLAWYRQKPGQTPRLLIYGTSSRATGIPDRFSGSGSGTDFSLTISRLEPEDFAVFYCQQYAGLPTFGPGTKVDIK
- binding result [1]: no binding

B15: H1H6783P (antibody, human IgG1, V domains shown)
VH: QVQLQQSGPGLVKPSQTLSLTCAISGDSVSSNTFAWNWIRQSPSRGLEWLGRTYYRSKWYIDYAESVKSRITITPDTSKNQFSLQLNSVTPEDTALYYCAGGYTYAPRGAFDIWGQGTMVTVSS
VL: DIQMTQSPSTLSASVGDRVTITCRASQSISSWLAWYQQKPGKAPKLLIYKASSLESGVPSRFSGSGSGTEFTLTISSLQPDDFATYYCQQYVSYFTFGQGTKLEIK
- binding result [1]: no binding
